Test results reported in IntAct's records for PubMed 26766587.

B1: N-myc proto-oncogene protein (Homo sapiens), P04198 (parent)
chain: MPSCSTSTMPGMICKNPDLEFDSLQPCFYPDEDDFYFGGPDSTPPGEDIWKKFELLPTPPLSPSRGFAEHSSEPPSWVTEMLLENELWGSPAEEDAFGLGGLGGLTPNPVILQDCMWSGFSAREKLERAVSEKLQHGRGPPTAGSTAQSPGAGAASPAGRGHGGAAGAGRAGAALPAELAHPAAECVDPAVVFPFPVNKREPAPVPAAPASAPAAGPAVASGAGIAAPAGAPGVAPPRPGGRQTSGGDHKALSTSGEDTLSDSDDEDDEEEDEEEEIDVVTVEKRRSSSNTKAVTTFTITVRPKNAALGPGRAQSSELILKRCLPIHQQHNYAAPSPYVESEDAPPQKKIKSEASPRPLKSVIPPKAKSLSPRNSDSEDSERRRNHNILERQRRNDLRSSFLTLRDHVPELVKNEKAAKVVILKKATEYVHSLQAEEHQLLLEKEKLQARQQQLLKKIEHARTC
partner: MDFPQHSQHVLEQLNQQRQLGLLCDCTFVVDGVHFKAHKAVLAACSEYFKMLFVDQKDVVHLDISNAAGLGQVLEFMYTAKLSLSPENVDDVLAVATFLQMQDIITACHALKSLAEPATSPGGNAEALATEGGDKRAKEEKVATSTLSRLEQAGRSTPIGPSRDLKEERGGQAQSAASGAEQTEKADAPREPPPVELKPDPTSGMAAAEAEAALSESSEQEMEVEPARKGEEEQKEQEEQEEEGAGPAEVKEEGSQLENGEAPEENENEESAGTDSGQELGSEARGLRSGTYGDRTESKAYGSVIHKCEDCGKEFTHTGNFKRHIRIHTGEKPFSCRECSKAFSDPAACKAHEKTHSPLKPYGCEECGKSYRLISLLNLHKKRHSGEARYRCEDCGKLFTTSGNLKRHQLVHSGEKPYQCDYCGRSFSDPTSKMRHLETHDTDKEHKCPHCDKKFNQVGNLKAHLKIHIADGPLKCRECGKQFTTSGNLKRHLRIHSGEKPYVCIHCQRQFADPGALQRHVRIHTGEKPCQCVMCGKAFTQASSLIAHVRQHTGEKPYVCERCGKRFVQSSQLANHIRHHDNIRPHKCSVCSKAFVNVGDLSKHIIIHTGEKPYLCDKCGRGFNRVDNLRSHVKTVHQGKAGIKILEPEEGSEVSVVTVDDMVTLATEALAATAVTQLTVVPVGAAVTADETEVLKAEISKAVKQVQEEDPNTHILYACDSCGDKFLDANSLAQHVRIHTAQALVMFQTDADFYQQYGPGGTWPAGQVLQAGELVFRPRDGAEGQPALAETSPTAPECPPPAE

Variants of: B1
Conditions: with zbt17_human ZBTB17, Q13105

Row | effect of a mutation on the interaction | Variant
1 | decreasing interaction strength | MPSCSTSTMPGMICKNPDLEFDSLQPCFYPDEDDFYFGGPDSTPPGEDIWKKFELLPTPPLSPSRGFAEHSSEPPSWVTEMLLENELWGSPAEEDAFGLGGLGGLTPNPVILQDCMWSGFSAREKLERAVSEKLQHGRGPPTAGSTAQSPGAGAASPAGRGHGGAAGAGRAGAALPAELAHPAAECVDPAVVFPFPVNKREPAPVPAAPASAPAAGPAVASGAGIAAPAGAPGVAPPRPGGRQTSGGDHKALSTSGEDTLSDSDDEDDEEEDEEEEIDVVTVEKRRSSSNTKAVTTFTITVRPKNAALGPGRAQSSELILKRCLPIHQQHNYAAPSPYVESEDAPPQKKIKSEASPRPLKSVIPPKAKSLSPRNSDSEDSERRRNHNILERQRRNDLRSSFLTLRDHVPELVKNEKAAKVDILKKATEYVHSLQAEEHQLLLEKEKLQARQQQLLKKIEHARTC [V421D]
